Data from the DeepSol protein solubility set.

assay: soluble on expression in E. coli; label from the status in PepcDB or PDB records

Row | Sequence | soluble on expression in E. coli
1 | MGLLALGTPLQWFESRTYNEHIRDEGIEQLLYIFQAAGKRDNDPLFWGDELEYMVVDFDDKERNSMLDVCHDKILTELNMEDSSLCEANDVSFHPEYGRYMLEATPASPYLNYVGSYVEVNMQKRRAIAEYKLSEYARQDSKNNLHVGSRSVPLTLTVFPRMGCPDFINIKDPWNHKNAASRSLFLPDEVINRHVRFPNLTASIRTRRGEKVCMNVPMYKDIATPETDDSIYDRDWFLPEDKEAKLASKPGFIYMDSMGFGMGCSCLQVTFQAPNINKARYLYDALVNFAPIMLAFSAAAPAFKGWLADQDVRWNVISGAVDDRTPKERGVAPLLPKYNKNGFGGIAKDVQDKVLEIPKSRYSSVDLFLGGSKFFNRTYNDTNVPINEKVLGRLLENDKAPLDYDLAKHFAHLYIRDPVSTFEELLNQDNKTSSNHFENIQSTNWQTLRFKPPTQQATPDKKDSPGWRVEFRPFEVQLLDFENAAYSVLIYLIVDSILTFSDNINAYIHMSKVWENMKIAHHRDAILFEKFHWKKSFRNDTDVETEDYSISEIFHNPENGIFPQFVTPILCQKGFVTKDWKELKHSSKHERLYYYLKLISDRASGELPTTAKFFRNFVLQHPDYKHDSKISKSINYDLLSTCDRLTHLDDSKGELTSFLGAEIAEYVKKNKPSIESKCDKLAAALGHHHHHH | soluble
2 | MSLNKLSNVTLSAEQEKLRERVLSFMRSNLSQYKSDWKHPAMFVIQGDAGTGKSVILNSLFNEIQKLSQFSPSSEDILHGTHNYLVVNHPEMLKLYIRISDSFKYISKSSLERPTSLINNLQKRKVMADVVIVDEAHLLATSKDAFKRFYGENHLKDLMSLCKVLVLVYDDKQALRMGSYWDEGSNNGATLKDFYNEIPPKSRDWYTLKQQFRVAAPQNVLNWIDQISVAGKEGHHHHHH | not soluble
3 | MGTEFNGLFDEWAHTYDSFVQGEDIQYKEVFAHYEDILEDVVNKSFGNVLEFGVGTGNLTNKLLLAGRTVYGIEPSREMRMIAKEKLPKEFSITEGDFLSFEVPTSIDTIVSTYAFHHLTDDEKNVAIAKYSQLLNKGGKIVFADTIFADQDAYDKTVEAAKQRGFHQLANDLQTEYYTRIPVMQTIFENNGFHVTFTRLNHFVWVMEATKQLEHHHHHH | soluble
4 | AEMEVQIVRNDPPLRYDTNLPVDLLHMVYAGRGATGSSGVVFGTWYRTIQDRTITDFPLTTRSADFRDGRMSKTFMTALVLSLQACGRLYVGQRHYSAFECAVLCLYLLYRNTHGAADDSDRAPVTFGDLLGRLPRYLACLAAVIGTEGGRPQYRYRDDKLPKTQFAAGGGRYEHGALASHIVIATLMHHGVLPAAPGDVPRDASTHVNPDGVAHHDDINRAAAAFLSRGHNLFLWEDQTLLRATANTITALGVIQRLLANGNVYADRLNNRLQLGMLIPGAVPSEAIARGASGSDSGAIKSGDNNLEALCANYVLPLYRADPAVELTQLFPGLAALCLDAQAGRPVGSTRRVVDMSSGARQAALVRLTALELINRTRTNPTPVGEVIHAHDALAIQYEQGLGLLAQQARIGLGSNTKRFSAFNVSSDYDMLYFLCLGFIPQYLSAV | soluble
5 | AIAKPTNKAQDDDAVFALSTEVNHKLDLHQSSAEALRLAGVYTRQSCVLDLYHGYRSDDEDTEPDEEDGRLQTVREYHENGMLKLMRTFVRRLRRDATDPTAESSYYDRVVEEKHYDPSGICRVDMHFALGQPYLYRKHYYPNNRLKSEKVFFVEDEETMRARKVGHWRTYYENGNIQSEIIYNKDGVRCGFCKRYAIDGAIEWVKDYTREQEERLQAFNAKRGNLDLTVTDAARVLGLEGDWCSHVVNRTFRSKCAPLHPDWRRTAGDKAGETWEEEQRTEAFIRLSRAREVLLKFLETHPRECSCERGGA | soluble
6 | MAHHHHHHMLHCSREEVGELLIDSCKRSVGTSVELDTLLSNKNTSKVAPDATAATIMQVRMMYGKDDSGDLSYAEMTRLVEGLSSSKDLTERILKPFEDDNRHTIAFSEFAKVYSNAVSFKELGYVFQDLAGGQQTISRDTFASFVCDIQDEDWDAETLNEKLALMGCVGIDGITENNFVGYIMSPYFDFAMEKKLTGVYQDMDQIMCCYFISSSHNTYLTGDQLTSKSSAQMYKKGASRRVPVREAICRNGPHGEPIVCHGYTRTSCIAFEECVKMIRQYAFTASAYLVILSLGVHTSVEQQDKMAEILEEGLGSLLFWPPWGSNEKPTMAFSPNNLKNKILVKAKRGDFPAREPRVDKDDDATETDSMASTNNADYLKMKEARRKAGKDEVRVSAKLSAIVSIESSKYQGVKDLSYLKDKQPHHCSSYSERKGKAIVREAHNALVCINDTCLSRVFPAGSRIDSSNYRPLLYWVSGCQMVAINWQSSDTFGWRLNGCIFLDSGCCGYLLKPDYLRPVTCPDVAVPEYLRSLTVEVIWGFALPSAKQARGCRPVCDSFPRGP | not soluble
7 | MGSDKIHHHHHHMSINFDLNDLQAFRAVVENGSFRKAAESVRITQPALSRRIEKLESALNVKLFERTTRKVSLTTVGRAFLPQVERILDDLDIALMTIGEVGSTRMGSVTIACVPSAAYYFMPQVISAFREDYPKIRVKVLDASANEVNSAVALGEADFGVSFSGNLAPEVDFELLLQERYVMACRRDHSLAIRESVSWEEMYSHDYIALDITSGNRLVLDQALARSRPHKESICETRHVTTMIGLVEAGLGVAAVPSIAMPMTAHPFLVSVPLVEPEVIRNVGLIKRRGRTLTPAALELEQLVRKMPFRSAGN | not soluble
8 | MGSDKIHHHHHHMSAIPQAARKRGRPVKGESATLRDELILKSAKLFRTQGYERTTVRDIAAAAGVQAGSWFYYFKTKQDILVAVMEQGMSNALARIEALDVEHLPARDAFRALVHTHLHTLVSPDHDFIPVLLYEWKSLDEAMQAKVLKLKDRYEAVWDGVIERLQAAGEWPAPTPIDRLLMFGALNWVAQWYKPDGALGLDALAEHAVRFLLRTAETPAPAPAGTAKRRRGVKAS | not soluble
9 | MGSDKIHHHHHHMGNAAASTRAICHRRCSTYPRMNDFQSLSTEESPAPAGTNPAVNPIARIHGEPVTEIPSDLYIPPDALEVFLDTFQGPLDLLLYLIRKHNLDVLDIAMAELTRQYLAYIEMMRANKLELAAEYLLMAAVLIEIKSRMLLPKPVAKGNEDEVDPRAELVRRLLEYEQMKVAGQKLNKLPQAERDFALTNVWIEQKVIERLPEVNADDLRNAWLILMARLNVNRRHNITREELSVREHMTRILRHVQGHHFVEFSDLFNAAAGAAELVVTFLALLELVKERQVEVSQPSAFGMIYVRPISVLTTV | not soluble
10 | MKPAIKRACLLGTALFSLCASAAQAAGVLVGTWDLRGNGQLAAVYRDGANLQVVEGGSTRNYSFGNVVWSVFGATDTDGQPGAEILVKAGPDLVIVSHASTTQRKYPVGNVSWAIMRATDVDNVAGDEVILSIGNGVRTVFDRTRTQRDATFSYNGTWGLFDVADVDGAPGKELVLNMGNGVKVIDPRTSGAKDFTFSGYHALAQIADLDGQPGAEIIGRTSTGIYVISNASSRKEYSIGASAWALYGGTADTDGKPGNELIVVMQGKVRVIHHASGASSDYRIGDVNYSIDSVADMDGQPGAEILVRDANGKLFVINDRTGKVSS | not soluble
11 | MGSDKIHHHHHHAAPAPQAPALPANLTTRTWVLTDLAPGGKLRRVTGERPTLTWTVQPGGLQLSGSTGCNTYRGPATVTGQQLKVSALATTRRGCAPTQAQQENDFLTLLRGASHYRLSGQTLTVYAASTARLVFTAAPGGSMTTPSNTPAGANTPTGTTLKAAQLAGDWQLTDLREGGQAVTLPADAPFTFTASGTNTLRLSGMAGCNRLMGEVTLSGAGLTFGPLAATRMACEDMTAEQALSRVLQGSGQVTLKGDTLTWHRSGGEVVLTRRAPAATTADLSGSYRLLSVNGTAADARRTVSLTFKAGQVGGFDGCNSFGGEYSLDKAGHLTAGNLVTTLRACPDQLDQPILTALLGQAPTVQLRGRTLTLDAGGERWVFERE | not soluble
12 | MSLPCNKHPFYQQLEQQLDTTRTEGLYKNERVITSAQQANIAVADGSRVINFCANNYLGLANHPKLIAAAKAGMDSHGFGMASVRFICGTQDIHKELEHKLASFLGMEDAILYSSCFDANGGLFETLLGPEDAIISDALNHASIIDGVRLCKAKRYRYANNDMTELEAQLKQAKAEGARHIMIATDGVFSMDGVIANLKRVCDLADEYQALVMVDDSHAVGVIGANGRGTHEYCEVMDRVDIITGTLGKALGGASGGYTAGRKELVEWLRQRSRPYLFSNSLAPAIVAASIEVLSLLEEGGALRDRLWANARLFREKMSAAGFTLAGADHAIIPVMLGEAKLAQDFANALLKEGIYVTGFFFPVVPKGQARIRTQMSAGHTTEQVERAIEAFVRIGKQLNVIA | not soluble
13 | MSLTTELVDWTHEQKCRKAVAALEKNGFTAVYCPSGREAFDYILTEAVDARSIGFGGSLSVVDLQVIDRLREMDKELLIHGLPGLSLEERVAIMRRQLTCDLFLTGTNALTLSGWLVNIDATGNRVASMFFGPRTVIVVAGRNKIVDGGVTEAIARVKEWASPPNARRLSYKTPCATTGFCSDCNSPDRICRITTVIDRNPRLTDLRVLVVNEDMGLLEHHHHHH | soluble
14 | MGSDKIHHHHHHMRPLIFAYANAAASIAADSWNLVMGEDNPFCRHEYLLSLEQSLSACDATGWQACHLCVFDASGMGLTQEQNTDGIVSTRDAVHFIDLPLLAVMPLYQKSHSYGEYVFDWAWAQAYEHHGLAYYPKLLNAIPFTPVLGRRIGLSPRLSADEAQQLSALVFTCLNRQLMDAHASISSWHCLFVSPSQQSLFEPPLSVKQQTLQHLPHNPSLRRLSTQFHWYNRGYTSFEAFLAALNSRKRKNIVKERAQLQTHGLRFEFVAGNVITSQQWQRFIECYQLTYLKRSGHRGYLTPVFFQMIAERLAEQIVLLVVSDATGEMIAGALYFTGRNELGQRCLFGRYWGSTLELEGLHFEACYYQGIEYCIAQDIEVFDAGAQGEHKVLRGFEPVAIYSYHNIAHPEFKLAIAHFTEEEAVQMEVYMQQMREVLPYKKAP | not soluble
15 | AHHHHHHGSARITEEQRRKLAQDALEYHRNNFPGNGKIEVIPKVPLRDFYDLSLAYTPGVAEPCKVIAKKGNYEDYTIIPNTVAVVTDGSAILGLGNIGVLAGMPVMEGKCVLFKALAGIDAFPILIDTQDVEKIVETIKLISKGFGGINLEDISAPRCFEIEMRLKRELDIPVFHDDQHGTAVVTLAGLINALKLVGKKFNEIKVAISGAGAAGIAIAKLLHHVGVKEILLVDRAGIIYEGRKENMNPYKEEVARFNIHGVQGDLAKAMEGADVFIGVSVGGIVKPWMIKKMADDPIVFAMANPIPEIMPEDAKKAGAKIVATGRSDYPNQINNVLGFPGIFRGALDVRATDITLNMNIAAAEAIASVVSDEELSEDYIIPSPLHPDVYPKEARAVAEQAIRDGVARRKLSGEWVEEHTRKLREFYAALIEPLNERRKQYIT | soluble
16 | MLHLIVADSELETIPEEMLDDPGVRRFAKKRNKRVDRMILDSNYMHAFIDKYYPGESKRRGRPDIIYILLEMAQESILNRKNLLRTYIHTRNDFVIKISPITRMPKSYNRFIGLFEDLFEKEIITNNGKTLLSLERMKLDELLESLKKDRTILLHPKGEFKKPSEFISTEDIAAIIGGFSEGDFRSDVSNIPEKYSIFRDELTIWSVGLEIVASYERAIGLLLEHHHHHH | not soluble
17 | MIPKVIHYFWFGRGKKNDVIERCMDSWKVHLPDYEIKEWNEDNFNVHINNFTLQAYQMKKWAFVSDYARLHILYHYGGIYLDTDLEITNSLDPFLDYEGFMGFFSNFDISGGIIGAAKGNKFIKKLLTYYENKNFIDGNGKIDEKTNVEIITEISKKHFGFVGENQTQQILDMTIFPKEYFTVRDVNVKNYAIHHYNASWLSHEEMNKHLKSYRKYYEFTVKWLDNLINNKIDLTPYKNKCIAIFGKGYIGELLVSYLQNNNVPIRQIIDTKFANDTYKDIPIVSSDTISDEVNLIIITPIHSFESIYLSLKEKSCADIISIENLLS | soluble
